The results in this text go back to the supplement of paper PMC12042874.

The nature of the data set: amyloid nucleation score (Sup35N fusion, yeast selection) (log enrichment); library NNK2; higher = more nucleation; inactive = no reads after selection. In a few lines:
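Yeast lacking psi expressed peptides of 20 random codons fused to Sup35N, received 100 μM copper sulfate for 24 hours, and were then grown for 7 days at 30°C on medium lacking adenine and uracil. Illumina sequencing of input and output plasmid inserts provided the reads. Nucleation scores are DiMSum log enrichments of output over input, centred on the mode of non-aggregating sequences. Any sequence with under 100 input reads was excluded.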

± gives the uncertainty stated by the source.

Take VDSVTGVMTFSTRSRSSDGD: the amyloid nucleation score was determined as 0.844 ± 0.43.

Take MRLFFLVLICAYVVESGFQC: the amyloid nucleation score came to 0.72 ± 0.25.

LSHRSQYGADVIRSR: the amyloid nucleation score is -0.316 ± 0.61.

The substance INYSFWRSHSSP came in with an amyloid nucleation score of 4.42 ± 0.099.

PNNINRFRRSYFY: the amyloid nucleation score is -1.14 ± 0.49.

For HLFCTMHSQTLEDYIKSLVC, the amyloid nucleation score was -0.087 ± 1.

In the case of KRWCRGSE, the amyloid nucleation score was 0.229 ± 0.24.

HYGTTFVISL: the amyloid nucleation score worked out at 3.85 ± 0.1.

YKETFGIA: the amyloid nucleation score was -1.36 ± 0.49.

As for YSVYKTLA, the amyloid nucleation score was -1.51 ± 0.78.

In turn, TFDLSWLVHVPDNCCHLLCF came in with an amyloid nucleation score of -0.183 ± 0.28.

For TIILG, the amyloid nucleation score was -0.637 ± 0.27.

LHTTCLFSRWNVFL registered an amyloid nucleation score of 2.3 ± 0.076.

For the substance FPLDIKGKWDVGNMEGKVVE, the amyloid nucleation score stood at 0.486 ± 0.41.

YDYEEFRSVLKWIAGRIYVD gave an amyloid nucleation score of -1.27 ± 0.48.

Turning to RKQNTVQWSNHFLHCKMPST, the amyloid nucleation score result is “inactive”.

The substance NEVDG yielded an amyloid nucleation score of 2.28 ± 0.1.

NLYTA yielded an amyloid nucleation score of 0.49 ± 0.29.

WHLVGRRSID yielded an amyloid nucleation score of -0.336 ± 0.76.

The substance SPWCPQLSTGGCSNLGSLRR displayed an amyloid nucleation score of 0.612 ± 0.31.

With VFAGFACFHIIN, the amyloid nucleation score came out at 5.843 ± 0.044.

As to GRCSSSLRICRSNWGAY, the amyloid nucleation score was found to be 0.45 ± 0.22.

In turn, LAGLYYVGVVENGMDMQDRK came in with an amyloid nucleation score of -0.329 ± 0.29.

For GLHSGNFTACICM, the amyloid nucleation score turned out to be 8.731 ± 0.055.

For the substance IGFYFLNRRKIFLASTGILM, the amyloid nucleation score entry was “inactive”.

Substance CDPFYTSLGCSSN gave an amyloid nucleation score of 2.85 ± 0.2.

For the substance SDGSREFSCKLGGAGLGDGW, the amyloid nucleation score was found to be 0.334 ± 0.5.

FIYVSWRTWSEIVGMCFGVV came in with an amyloid nucleation score of -1 ± 0.45.

In turn, FESRFYHSVLTIVTLFTYPA showed an amyloid nucleation score of -0.025 ± 1.1.

Take SMYDAGIFVGYCLRGFLYDC: the amyloid nucleation score entry was “inactive”.

Substance SLACGNEKRFVMILSHI registered an amyloid nucleation score of 0.641 ± 0.74.

Turning to MINFDYYRYHCWCSNQHYTR, the amyloid nucleation score is 1.19 ± 0.47.

As to DSEHYVMWLKWYLLFLTYTH, the amyloid nucleation score was -0.307 ± 0.3.

FCPFWDSWWGKPCRPAIDSA gave an amyloid nucleation score of 0.683 ± 0.74.

Substance HLMLFDMTASLLHSHNVSRP showed an amyloid nucleation score of 5.63 ± 0.058.

Turning to HLLYPSSMVDRALHGLDTRT, the amyloid nucleation score was determined as 5.358 ± 0.051.

Substance CYRVVTLFNFK showed an amyloid nucleation score of 6.178 ± 0.029.

On to FITNHK, for which the amyloid nucleation score result was “inactive”.

Substance TVFYIYMGQDDG showed an amyloid nucleation score of 5.12 ± 0.1.

CVNYYVYANHRRISYWW showed an amyloid nucleation score of -0.337 ± 1.1.

Substance GTAPSDQRTSSCR registered an amyloid nucleation score of 0.989 ± 0.23.

VMILGVYKNFMLIFELVPVY returned an amyloid nucleation score of -1.01 ± 0.76.

Take TIYRSSSNNSQEHSLNLMFG: the amyloid nucleation score result was “inactive”.

In the case of RFAFVRNKTWEQLPMI, the amyloid nucleation score entry is “inactive”.

Regarding RCLNQTTYRNNSPCAVLWCM, the amyloid nucleation score came out at 7.028 ± 0.058.

For LSMYDLYSMAR, the amyloid nucleation score entry is “inactive”.

For the substance CTAHYYCQGCWTSRMLNLTA, the amyloid nucleation score is -0.116 ± 0.47.

SQSKDMMCLSGSYSYYTACA: the amyloid nucleation score is -1.21 ± 0.78.

As for FWCINVSTWYNNQELI, the amyloid nucleation score result was “inactive”.

In turn, NLSDLLFLQSTSEGLSLFSI registered an amyloid nucleation score of -0.621 ± 0.64.

As for MLRCQFTSTGFGNRLATFSD, the amyloid nucleation score was 3.02 ± 0.15.

IVKFDVRVMCADLIGSHGQW displayed an amyloid nucleation score of 7.02 ± 0.085.

As for PCLMVIRRWMITVFYQKLSG, the amyloid nucleation score worked out at 0.181 ± 0.2.

ILLYRNAYWYPGKSSICLTS: the amyloid nucleation score was -1.06 ± 0.49.

Regarding VLYWCPRDSKTWLSGRLLPM, the amyloid nucleation score was found to be 1.33 ± 0.47.

SSRVDLLLLVETAFARSRIW: the amyloid nucleation score was 3.31 ± 0.08.

The substance AKRDMAKKYLSGYHGVLWYV gave an amyloid nucleation score of 0.077 ± 0.63.

For the substance RAIFR, the amyloid nucleation score is -0.686 ± 0.56.

In the case of SIWLFYHILVFVLMPFAVAF, the amyloid nucleation score entry is “inactive”.

On to SSWAGVMYIVHNTKVHSYTI, for which the amyloid nucleation score turned out to be 3.19 ± 0.064.

In turn, HYHTSISYR displayed an amyloid nucleation score of 4.77 ± 0.1.

FSEVSCGLCTMYTLFVEFFN showed an amyloid nucleation score of 0.174 ± 1.

The substance LCDPLLVKNCRLRLTVLWGM came in with an amyloid nucleation score of -0.057 ± 0.63.

The substance HFNVPCNCSNCSYGTILSIT returned an amyloid nucleation score of -0.305 ± 0.8.

Substance GAVRVYNYNYQEVKTLLLVE registered an amyloid nucleation score of -0.425 ± 0.32.

MTTFDIRIMA yielded an amyloid nucleation score of 0.195 ± 0.24.

AVFSRYCLIYVIMLDHDTDP returned an amyloid nucleation score of 5.03 ± 0.099.

Substance RCSCPANGFLMGQLAVMS showed an amyloid nucleation score of 2.83 ± 0.12.

For the substance SFSPFVYG, the amyloid nucleation score is -0.868 ± 0.44.

As for LNEIERSSD, the amyloid nucleation score turned out to be 0.755 ± 0.3.

In the case of VNDLWRDSHNYFCTNGGNIR, the amyloid nucleation score entry is “inactive”.

In the case of YVHVNIRYFYSLGDAVDKMP, the amyloid nucleation score was determined as 4.86 ± 0.11.

EGFEFCWINNMDWSMPWVTN came in with an amyloid nucleation score of 5.08 ± 0.062.

As for MALHVQWRVTGSI, the amyloid nucleation score is 5.14 ± 0.037.

For TVCWSLFDDCSFYFRCNAFE, the amyloid nucleation score was 8.42 ± 0.042.

As for VYSPAIFTNVFSYVSCEEER, the amyloid nucleation score came to 6.56 ± 0.072.

EGNRNEVSFYVMFSAVPSGL had an amyloid nucleation score of 9.221 ± 0.059.

Consider QRLYPFYCIGYYITMYVVHC, for which the amyloid nucleation score stood at 2.45 ± 0.13.

Consider NQCISDPNSCSSCALL, for which the amyloid nucleation score result is “inactive”.

Substance NFNCYFS had an amyloid nucleation score of 4.888 ± 0.037.

In turn, RNYLNMVYGLFFCIHCSCFS displayed an amyloid nucleation score of 5.853 ± 0.05.

In turn, GTRYILVKGTMGYDLCYFLG yielded an amyloid nucleation score of 2.69 ± 0.13.

In turn, LSSIWVSSYHLSWLKSW yielded an amyloid nucleation score of -0.048 ± 0.42.

GVSVSVYHGWLVLDRMFHNS gave an amyloid nucleation score of 4.25 ± 0.12.

In turn, FAVNDCILCCRRSHWVLPYW returned an amyloid nucleation score of -0.334 ± 0.63.

Turning to NGVGLSVTGKCCKERSIFPP, the amyloid nucleation score was -0.406 ± 0.5.

Substance PTSWFRSNMKWFYPVSQPHW came in with an amyloid nucleation score of -0.434 ± 0.64.

Regarding YTRLYFNEHDFYFFVGIMT, the amyloid nucleation score entry was “inactive”.

Substance HKCTSAV showed an amyloid nucleation score of 0.229 ± 0.61.

As to RCPLHPLGGLYTIWSDYLRL, the amyloid nucleation score came to 5.82 ± 0.075.

In the case of LILMAENL, the amyloid nucleation score was -0.92 ± 1.1.

VYRDDCFHFLDTSQTGACLT: the amyloid nucleation score is 0.797 ± 0.4.

For DVVEDF, the amyloid nucleation score is -0.02 ± 0.49.

As to FGYKR, the amyloid nucleation score is -0.828 ± 0.61.

LFCVRSRLGVGCYRIWG had an amyloid nucleation score of 5.364 ± 0.046.

In turn, ETSANDLEPNLSVHHSGFSR gave an amyloid nucleation score of 0.078 ± 0.32.

Regarding GSGFLFFSVF, the amyloid nucleation score turned out to be 0.353 ± 0.25.

Consider ASWYRMWMWCEHTSSRLCVK, for which the amyloid nucleation score was 5.268 ± 0.037.

In turn, KSHAPFVLMCRIGVGSKCGK came in with an amyloid nucleation score of 3.81 ± 0.09.

For the substance HCRSIVWSRYFLMNPLN, the amyloid nucleation score was -0.029 ± 0.61.

As for EIIYSQSDSVYGCGGY, the amyloid nucleation score result is “inactive”.

Substance TSLFI yielded an amyloid nucleation score of 0.487 ± 0.6.

For YMVLSHVVQPFNHLGISWPC, the amyloid nucleation score entry is “inactive”.

With MVLVS, the amyloid nucleation score is 0.548 ± 0.34.

RRNTLRYARMKSRYSFAP came in with an amyloid nucleation score of -0.674 ± 0.79.

Take IFSTGNVKGNLTR: the amyloid nucleation score is -0.491 ± 0.22.

VNKQNPGVYFLHRGFFVLSR yielded an amyloid nucleation score of -1.57 ± 0.78.

Substance LASFFCFGIINTAC had an amyloid nucleation score of -0.019 ± 0.17.

Substance LFDLDSESRMTPQGGLRNAT showed an amyloid nucleation score of -0.665 ± 0.54.

Substance EVPCWMTRSSMECNVDYWEG registered an amyloid nucleation score of 0.797 ± 0.2.

In turn, FHGRSATGISRLYLKRGCSG gave an amyloid nucleation score of 0.761 ± 0.47.

In the case of WVMAISLADFVLYLNWSLYR, the amyloid nucleation score entry was “inactive”.

In the case of SMTRLLGRDGYTREYSSSSR, the amyloid nucleation score is 0.834 ± 0.55.

As to LSSEVISSSHALQKTSICRF, the amyloid nucleation score was found to be 2.72 ± 0.13.

On to SIFRLDDEGDPVMREPLM, for which the amyloid nucleation score came to 1.22 ± 0.59.

In the case of FYESELLSARQFSVYVSLMM, the amyloid nucleation score result is “inactive”.

Take LAFPCFRVSGYESYGFVRKL: the amyloid nucleation score came out at 0.436 ± 0.31.

With SRSSG, the amyloid nucleation score stood at 5.17 ± 0.058.

Turning to GCQGVEGSESEQIDQIENWA, the amyloid nucleation score came to 0.978 ± 0.74.

In the case of LYGRYANERWRLNSLDEKVT, the amyloid nucleation score was determined as 0.881 ± 0.45.

In turn, MRVRLGSATR displayed an amyloid nucleation score of 0.47 ± 0.34.

In turn, TCYLGPWCPIHDTRIRPGWV came in with an amyloid nucleation score of 0.698 ± 0.21.

In turn, WSQRMLRSQEVPCSWWEIVT gave an amyloid nucleation score of 0.905 ± 0.13.

KLTPYRISKMPSWLSA: the amyloid nucleation score entry was “inactive”.

For the substance MYCLVYHQIYSDSHA, the amyloid nucleation score was determined as 3.91 ± 0.05.

Turning to RCRVFYQNHIYLGFLKCNQS, the amyloid nucleation score stood at 1.42 ± 0.16.

The substance VIDTCGDVNRSRGQVLSGGV displayed an amyloid nucleation score of 0.293 ± 0.3.

SSWVFITFSYVMRSQVYHLK came in with an amyloid nucleation score of -1.12 ± 0.49.

Turning to LVPSY, the amyloid nucleation score turned out to be 0.457 ± 0.18.

EVGVV yielded an amyloid nucleation score of 0.622 ± 0.18.

Substance VFYNLGVHMWLWWSGIVLVR returned an amyloid nucleation score of 0.775 ± 0.74.

Turning to YRQMIRDYWIEKQSLHIRAD, the amyloid nucleation score is 0.27 ± 0.56.

For CHWSTGRYRDVMICVLWGIS, the amyloid nucleation score is -0.049 ± 0.34.

Turning to RQVAPMHLYIYSACNGAKNR, the amyloid nucleation score came out at 7.095 ± 0.062.

In the case of MTKRG, the amyloid nucleation score is 0.187 ± 0.41.

IKFTLHCYDCVVFNC came in with an amyloid nucleation score of 6.937 ± 0.056.

IGWGYRWVRWL gave an amyloid nucleation score of -0.415 ± 0.5.

In the case of YSRVILFHNGQMGVVMVPRW, the amyloid nucleation score entry is “inactive”.

DAHTMIGRYTDSSLRHRTWV displayed an amyloid nucleation score of 1.05 ± 0.3.

Substance YMYLTCSLGSVCRFLSEHMW registered an amyloid nucleation score of -0.605 ± 0.36.
